Residue numbers refer to the chain shown, from its start. Starred links: 1 amine or outer side, 2 acyl side, 3 side chain; linkers in the order of their positions; H or OH if unused. Non-standard residues stand in square brackets, D forms with d. Groups on a side chain read outwards from the residue. No end group written: not given here. *: point of attachment. C20 diacid = O=C(O)CCCCCCCCCCCCCCCCCCC(=O)*; C18 diacid = O=C(O)CCCCCCCCCCCCCCCCC(=O)*; γGlu = O=C(O)[C@H](CCC(=O)[*:2])N[*:1]; εLys = N[C@@H](CCCCN[*:1])C(=O)[*:2]; AEEA = NCCOCCOCC(=O)O; Aib = CC(C)(N)C(=O)O; OEG = OEG spacer
T1: human GIP receptor (human, UniProt P48546 22-466)
T1 sequence (looked up): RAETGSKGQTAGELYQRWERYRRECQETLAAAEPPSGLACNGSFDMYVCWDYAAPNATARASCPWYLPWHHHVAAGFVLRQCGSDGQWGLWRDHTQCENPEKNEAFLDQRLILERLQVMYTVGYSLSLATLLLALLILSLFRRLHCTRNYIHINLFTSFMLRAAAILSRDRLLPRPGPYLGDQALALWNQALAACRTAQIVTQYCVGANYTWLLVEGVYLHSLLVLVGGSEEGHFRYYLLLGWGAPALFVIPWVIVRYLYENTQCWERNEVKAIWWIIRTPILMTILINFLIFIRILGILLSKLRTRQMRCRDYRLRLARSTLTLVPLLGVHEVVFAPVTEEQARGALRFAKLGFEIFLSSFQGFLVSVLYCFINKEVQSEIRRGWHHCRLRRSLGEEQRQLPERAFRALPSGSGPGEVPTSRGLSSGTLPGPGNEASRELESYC

T2: human neuropeptide Y2 receptor (human, UniProt P49146 1-381)
T2 sequence (looked up): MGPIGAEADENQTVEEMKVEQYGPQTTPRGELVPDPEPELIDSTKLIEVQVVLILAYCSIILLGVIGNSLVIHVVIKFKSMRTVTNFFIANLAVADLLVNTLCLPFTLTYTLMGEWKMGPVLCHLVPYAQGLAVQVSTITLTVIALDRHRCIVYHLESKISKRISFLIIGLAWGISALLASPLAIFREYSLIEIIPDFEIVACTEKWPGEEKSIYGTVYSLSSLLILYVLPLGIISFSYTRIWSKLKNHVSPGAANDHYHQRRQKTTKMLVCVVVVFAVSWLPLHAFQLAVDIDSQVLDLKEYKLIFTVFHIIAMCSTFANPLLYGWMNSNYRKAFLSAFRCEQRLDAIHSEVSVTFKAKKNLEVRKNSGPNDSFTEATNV

B1: Compound 260 (peptide)
peptide: YXEGTFTSDYSIXLEKQAQXAFVEWLIKGGPSSGASLRHYYNWLTRQRY
modifications: Aib at 2, 13, 20; K28 side chain acylated with C18DA-gGlu-gGlu-gGlu-gGlu-gGlu-AHX; C-terminal amide (NH2)
B2: Compound 261 (peptide)
peptide: B1 peptide
modifications: Aib at 2, 13, 20; K28 side chain acylated with C18DA-gGlu-gGlu-gGlu-gGlu-gGlu-OEG-OEG; C-terminal amide (NH2)
B3: Compound 262 (peptide)
peptide: Y[Aib]EGTFTSDYSI[Aib]LEKQAE[Aib]AFVEWLIK([γGlu-γGlu-γGlu-γGlu-C18 diacid])GGPSEGASLRHYYNWLTRQRY-NH2
modifications: also: TFA salt
B4: Compound 263 (peptide)
peptide: Y[Aib]EGTFTSDYSI[Aib]LEKQAQ[Aib]AFVEWLIK([εLys-γGlu-γGlu-γGlu-γGlu-γGlu-C18 diacid])GGPSEPASLRHYYNWLTRQRY-NH2
modifications: also: TFA salt
B5: Compound 264 (peptide)
peptide: Y[Aib]EGTFTSDYSI[Aib]LEKQAQ[Aib]AFVQWLIK([Glu-Glu-Glu-Glu-Glu-Glu-C18 diacid])GGPSEGASLRHYYNWLTRQRY-NH2
modifications: also: TFA salt
B6: Compound 265 (peptide)
peptide: B1 peptide with E24Q, S33E
modifications: Aib at 2, 13, 20; K28 side chain acylated with C18DA-gGlu-gGlu-gGlu-gGlu-gGlu-gGlu-eLys; C-terminal amide (NH2)
B7: Compound 266 (peptide)
peptide: Y[Aib]EGTFTSDYSI[Aib]LEKQAQ[Aib]AFVQWLIK([OEG-OEG-γGlu-γGlu-γGlu-C18 diacid])GGPSEGASLRHYYNWLTRQRY-NH2
modifications: also: TFA salt
B8: Compound 267 (peptide)
peptide: Y[Aib]EGTFTSDYSI[Aib]LEKQAQ[Aib]AFVQWLIK([εLys-γGlu-γGlu-γGlu-γGlu-γGlu-C18 diacid])GGPSEGASLRHYYNWLTRQRY-NH2
modifications: also: TFA salt
B9: Compound 268 (peptide)
peptide: Y[Aib]EGTFTSDYSI[Aib]LEKQAQ[Aib]AFVQWLIK([γGlu-γGlu-γGlu-γGlu-C18 diacid])GGPSEGASLRHYYNWLTRQRY-NH2
modifications: also: TFA salt
B10: Compound 269 (peptide)
peptide: Y[Aib]EGTFTSDYSI[Aib]LEKQAQ[Aib]AFVQWLIK([AEEA-AEEA-γGlu-γGlu-γGlu-γGlu-C20 diacid])GGPSEGASLRHYYNWLTRQRY-NH2
modifications: also: TFA salt
B11: Compound 270 (peptide)
peptide: Y[Aib]EGTFTSDYSI[Aib]LEKQAQ[Aib]AFVQWLIK([AEEA-AEEA-γGlu-γGlu-γGlu-γGlu-C18 diacid])GGPSEGASLRHYYNWLTRQRY-NH2
modifications: also: TFA salt
B12: Compound 271 (peptide)
peptide: Y[Aib]EGTFTSDYSI[Aib]LEKQAQ[Aib]EFVEWLIK([γGlu-γGlu-γGlu-γGlu-C20 diacid])GGPSEGASLRHYYNWLTRQRY-NH2
modifications: also: TFA salt
B13: Compound 272 (peptide)
peptide: Y[Aib]EGTFTSDYSI[Aib]LEKQAQ[Aib]AFVEWLIK([γGlu-γGlu-γGlu-γGlu-C18 diacid])GGPEEGASLRHYYNWLTRQRY-NH2
modifications: also: TFA salt
B14: Compound 273 (peptide)
peptide: Y[Aib]EGTFTSDYSI[Aib]LEKQAQ[Aib]EFVEWLIK([AEEA-AEEA-γGlu-γGlu-γGlu-C20 diacid])GGPSEGASLRHYYNWLTRQRY-NH2
modifications: also: TFA salt
B15: Compound 274 (peptide)
peptide: Y[Aib]EGTFTSDYSI[Aib]LEKQAQ[Aib]EFVEWLIK([AEEA-γGlu-γGlu-γGlu-C18 diacid])GGPSEGASLRHYYNWLTRQRY-NH2
modifications: also: TFA salt
B16: Compound 275 (peptide)
peptide: B1 peptide with A21E, S33E
modifications: Aib at 2, 13, 20; K28 side chain acylated with C20DA-gGlu-gGlu-gGlu-gGlu-gGlu-gGlu-eLys; C-terminal amide (NH2)
B17: Compound 276 (peptide)
peptide: Y[Aib]EGTFTSDYSI[Aib]LEKQAQ[Aib]EFVEWLIK([γGlu-γGlu-γGlu-γGlu-C18 diacid])GGPSEGASLRHYYNWLTRQRY-NH2
modifications: also: TFA salt
B18: Compound 277 (peptide)
peptide: B1 peptide with S33E, Q47X
modifications: Aib at 2, 13, 20; bHGln (beta-homo-L-glutamine) at 47; K28 side chain acylated with C20DA-gGlu-gGlu-gGlu-gGlu-gGlu-gGlu-eLys; C-terminal amide (NH2)
B19: Compound 278 (peptide)
peptide: Y[Aib]EGTFTSDYSI[Aib]LEKQAE[Aib]AFVEWLIKGGPSEGASLRHYYNWLTRQRY-NH2
modifications: not fully specified (residue 28); also: TFA salt

How the values were obtained:
Assay in all cases: cell-based or functional assay
human GLP-1 receptor = human GLP-1 receptor (human, UniProt P43220 24-463)
human GIP receptor = molecular target: T1, human GIP receptor
[1] = molecular target: T2, human neuropeptide Y2 receptor

Binder | EC50 hGLP1R 0.5% hP (CreLuc) (human GLP-1 receptor) [nM] | EC50 hGLP1R 100% hP (CreLuc) (human GLP-1 receptor) [nM] | EC50 hGIPR 0.5% hP (CreLuc) (human GIP receptor) [nM] | EC50 hGIPR 100% hP (CreLuc) (human GIP receptor) [nM] | EC50 hNPY2R 0.5% hP (CreLuc) [1] [nM] | EC50 hNPY2R 100% hP (CreLuc) [1] [nM]
B1 | 0.13 | 2.78 | 0.31 | 2.53 | 26.4 | 69.6
B2 | 0.15 | 3.91 | 0.18 | 1.15 | 24.1 | 64
B3 | 0.13 | 4.28 | 0.08 | 0.53 | 13.2 | 58.2
B4 | 0.32 | 5.21 | 0.12 | 1.5 | 15.8 | 83.2
B5 | 0.11 | 3.95 | 0.28 | 1.82 | 16.8 | 81.2
B6 | 0.1 | 2.13 | 0.39 | 0.79 | 8.83 | 23
B7 | 0.1 | 2.21 | 0.13 | 0.65 | 7.2 | 22.9
B8 | 0.07 | 1.44 | 0.12 | 1.18 | 9.25 | 27.6
B9 | 0.08 | 1.55 | 0.17 | 1.01 | 9.86 | 47.3
B10 | 0.14 | 3.86 | 0.46 | 1.23 | 9.56 | 32.5
B11 | 0.07 | 1.69 | 0.12 | 0.71 | 9.52 | 21.1
B12 | 0.53 | 21.4 | 0.62 | 2.62 | 16.1 | 80
B13 | 0.31 | 15.6 | 0.24 | 3.01 | 23.8 | 113
B14 | 0.75 | 19.2 | 0.38 | 1.52 | 19.3 | 76.3
B15 | 0.41 | 17.6 | 0.23 | 1.78 | 18.1 | 74.6
B16 | 0.5 | 21.7 | 0.27 | 1.75 | 19.9 | 60
B17 | 0.35 | 16.7 | 0.37 | 1.82 | 20.7 | 73.7
B18 | 0.19 | 1.29 | 0.11 | 0.68 | > 99.9 | 1120
B19 | 0.56 | 13 | 0.14 | 1.38 | 17.5 | 88.6
